Data published in patent USRE47150 (Bayer, dated 2018).

Experiments:
[1] = molecular target: T1, mouse tissue factor pathway inhibitor (TFPI) (mouse, UniProt O54819 29-289, limits assumed); experiment: competitive ELISA
T1 construct: bought; also called mTFPI; murine TFPI
T1 sequence (looked up): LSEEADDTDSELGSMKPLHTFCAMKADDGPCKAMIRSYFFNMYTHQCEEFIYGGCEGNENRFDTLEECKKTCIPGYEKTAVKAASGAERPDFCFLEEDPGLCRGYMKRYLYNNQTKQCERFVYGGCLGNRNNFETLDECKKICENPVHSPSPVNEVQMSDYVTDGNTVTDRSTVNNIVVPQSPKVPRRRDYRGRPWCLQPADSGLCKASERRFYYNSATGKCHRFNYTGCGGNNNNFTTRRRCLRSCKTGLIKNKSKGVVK

[2] = molecular target: T2, human tissue factor pathway inhibitor (TFPI) (human, UniProt P10646 29-304, limits assumed); experiment: competitive ELISA
T2 construct: bought; also called hTFPI; human TFPI
T2 sequence (looked up): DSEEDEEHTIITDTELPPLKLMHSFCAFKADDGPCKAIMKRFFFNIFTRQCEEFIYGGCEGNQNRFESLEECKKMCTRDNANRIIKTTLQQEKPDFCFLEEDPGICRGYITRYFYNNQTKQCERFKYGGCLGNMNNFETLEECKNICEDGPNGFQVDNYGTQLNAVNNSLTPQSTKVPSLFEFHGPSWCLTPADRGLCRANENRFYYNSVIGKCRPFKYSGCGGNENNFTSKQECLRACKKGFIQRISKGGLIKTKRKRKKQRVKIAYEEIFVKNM

| variant/HC_D62R [1] | variant/HC_D62R [2] | Binder |
| --- | --- | --- |
| 29.3 ratio | 28.2 ratio | 4B7 HC N32D+D62R+H107M+Y112D/LC D33R+N35T (Fab, V domains shown) VH: QVQLQQSGPGLVKPSQTLSLTCAISGDSVSSDSAAWSWIRQSPGRGLEWLGIIYKRSKWYNRYAVSVKSRITINPDTSKNQFSLQLNSVTPEDTAVYYCARWHSDKMWGFDDWGQGTLVTVSS VL: DIVMTQSPLSLPVTPGEPASISCRSSQSLVFSRGTTYLNWYLQKPGQSPQLLIYKGSNRASGVPDRFSGSGSGTDFTLKISRVEAEDVGVYYCQQYDSYPLTFGQGTKVEIKR |
| 27.9 ratio | 30.1 ratio | 4B7 HC N32D+D62R+H107M+Y112D/LC F31I+D33R (Fab, V domains shown) VH: QVQLQQSGPGLVKPSQTLSLTCAISGDSVSSDSAAWSWIRQSPGRGLEWLGIIYKRSKWYNRYAVSVKSRITINPDTSKNQFSLQLNSVTPEDTAVYYCARWHSDKMWGFDDWGQGTLVTVSS VL: DIVMTQSPLSLPVTPGEPASISCRSSQSLVISRGNTYLNWYLQKPGQSPQLLIYKGSNRASGVPDRFSGSGSGTDFTLKISRVEAEDVGVYYCQQYDSYPLTFGQGTKVEIKR |
| 43 ratio | 29.8 ratio | 4B7 HC N32D+D62R+H107M+Y112D/LC F31I+D33R+N35I (Fab, V domains shown) VH: QVQLQQSGPGLVKPSQTLSLTCAISGDSVSSDSAAWSWIRQSPGRGLEWLGIIYKRSKWYNRYAVSVKSRITINPDTSKNQFSLQLNSVTPEDTAVYYCARWHSDKMWGFDDWGQGTLVTVSS VL: DIVMTQSPLSLPVTPGEPASISCRSSQSLVISRGITYLNWYLQKPGQSPQLLIYKGSNRASGVPDRFSGSGSGTDFTLKISRVEAEDVGVYYCQQYDSYPLTFGQGTKVEIKR |
| 30 ratio | 28.8 ratio | 4B7 HC N32D+D62R+H107M+Y112D/LC F31I+N35I (Fab, V domains shown) VH: QVQLQQSGPGLVKPSQTLSLTCAISGDSVSSDSAAWSWIRQSPGRGLEWLGIIYKRSKWYNRYAVSVKSRITINPDTSKNQFSLQLNSVTPEDTAVYYCARWHSDKMWGFDDWGQGTLVTVSS VL: DIVMTQSPLSLPVTPGEPASISCRSSQSLVISDGITYLNWYLQKPGQSPQLLIYKGSNRASGVPDRFSGSGSGTDFTLKISRVEAEDVGVYYCQQYDSYPLTFGQGTKVEIKR |
| 20.6 ratio | 28.7 ratio | 4B7 HC N32D+D62R+H107M+Y112D/LC F31I+S32R+D33F+N35I+D97T (Fab, V domains shown) VH: QVQLQQSGPGLVKPSQTLSLTCAISGDSVSSDSAAWSWIRQSPGRGLEWLGIIYKRSKWYNRYAVSVKSRITINPDTSKNQFSLQLNSVTPEDTAVYYCARWHSDKMWGFDDWGQGTLVTVSS VL: DIVMTQSPLSLPVTPGEPASISCRSSQSLVIRFGITYLNWYLQKPGQSPQLLIYKGSNRASGVPDRFSGSGSGTDFTLKISRVEAEDVGVYYCQQYTSYPLTFGQGTKVEIKR |
| 19.7 ratio | 29.5 ratio | 4B7 HC N32D+D62R+H107M+Y112D/LC F31I+S32R+D33F+N35T (Fab, V domains shown) VH: QVQLQQSGPGLVKPSQTLSLTCAISGDSVSSDSAAWSWIRQSPGRGLEWLGIIYKRSKWYNRYAVSVKSRITINPDTSKNQFSLQLNSVTPEDTAVYYCARWHSDKMWGFDDWGQGTLVTVSS VL: DIVMTQSPLSLPVTPGEPASISCRSSQSLVIRFGTTYLNWYLQKPGQSPQLLIYKGSNRASGVPDRFSGSGSGTDFTLKISRVEAEDVGVYYCQQYDSYPLTFGQGTKVEIKR |
| 8.7 ratio | 18.2 ratio | 4B7 HC N32D+D62R+H107M+Y112D/LC F31I+S32R+N35I+D97T (Fab, V domains shown) VH: QVQLQQSGPGLVKPSQTLSLTCAISGDSVSSDSAAWSWIRQSPGRGLEWLGIIYKRSKWYNRYAVSVKSRITINPDTSKNQFSLQLNSVTPEDTAVYYCARWHSDKMWGFDDWGQGTLVTVSS VL: DIVMTQSPLSLPVTPGEPASISCRSSQSLVIRDGITYLNWYLQKPGQSPQLLIYKGSNRASGVPDRFSGSGSGTDFTLKISRVEAEDVGVYYCQQYTSYPLTFGQGTKVEIKR |
| 46.8 ratio | 28.4 ratio | 4B7 HC N32D+D62R+H107M+Y112D/LC F31M+D33F+N35I (Fab, V domains shown) VH: QVQLQQSGPGLVKPSQTLSLTCAISGDSVSSDSAAWSWIRQSPGRGLEWLGIIYKRSKWYNRYAVSVKSRITINPDTSKNQFSLQLNSVTPEDTAVYYCARWHSDKMWGFDDWGQGTLVTVSS VL: DIVMTQSPLSLPVTPGEPASISCRSSQSLVMSFGITYLNWYLQKPGQSPQLLIYKGSNRASGVPDRFSGSGSGTDFTLKISRVEAEDVGVYYCQQYDSYPLTFGQGTKVEIKR |
| 34.3 ratio | 29.9 ratio | 4B7 HC N32D+D62R+H107M+Y112D/LC F31M+D33F+N35T (Fab, V domains shown) VH: QVQLQQSGPGLVKPSQTLSLTCAISGDSVSSDSAAWSWIRQSPGRGLEWLGIIYKRSKWYNRYAVSVKSRITINPDTSKNQFSLQLNSVTPEDTAVYYCARWHSDKMWGFDDWGQGTLVTVSS VL: DIVMTQSPLSLPVTPGEPASISCRSSQSLVMSFGTTYLNWYLQKPGQSPQLLIYKGSNRASGVPDRFSGSGSGTDFTLKISRVEAEDVGVYYCQQYDSYPLTFGQGTKVEIKR |
| 24.6 ratio | 26.9 ratio | 4B7 HC N32D+D62R+H107M+Y112D/LC F31M+D33R (Fab, V domains shown) VH: QVQLQQSGPGLVKPSQTLSLTCAISGDSVSSDSAAWSWIRQSPGRGLEWLGIIYKRSKWYNRYAVSVKSRITINPDTSKNQFSLQLNSVTPEDTAVYYCARWHSDKMWGFDDWGQGTLVTVSS VL: DIVMTQSPLSLPVTPGEPASISCRSSQSLVMSRGNTYLNWYLQKPGQSPQLLIYKGSNRASGVPDRFSGSGSGTDFTLKISRVEAEDVGVYYCQQYDSYPLTFGQGTKVEIKR |
| 23 ratio | 21.3 ratio | 4B7 HC N32D+D62R+H107M+Y112D/LC F31M+D33R+N35I (Fab, V domains shown) VH: QVQLQQSGPGLVKPSQTLSLTCAISGDSVSSDSAAWSWIRQSPGRGLEWLGIIYKRSKWYNRYAVSVKSRITINPDTSKNQFSLQLNSVTPEDTAVYYCARWHSDKMWGFDDWGQGTLVTVSS VL: DIVMTQSPLSLPVTPGEPASISCRSSQSLVMSRGITYLNWYLQKPGQSPQLLIYKGSNRASGVPDRFSGSGSGTDFTLKISRVEAEDVGVYYCQQYDSYPLTFGQGTKVEIKR |
| 26.7 ratio | 32.2 ratio | 4B7 HC N32D+D62R+H107M+Y112D/LC F31M+S32L+D33R+N35I+D97T (Fab, V domains shown) VH: QVQLQQSGPGLVKPSQTLSLTCAISGDSVSSDSAAWSWIRQSPGRGLEWLGIIYKRSKWYNRYAVSVKSRITINPDTSKNQFSLQLNSVTPEDTAVYYCARWHSDKMWGFDDWGQGTLVTVSS VL: DIVMTQSPLSLPVTPGEPASISCRSSQSLVMLRGITYLNWYLQKPGQSPQLLIYKGSNRASGVPDRFSGSGSGTDFTLKISRVEAEDVGVYYCQQYTSYPLTFGQGTKVEIKR |
| 16.5 ratio | 21.9 ratio | 4B7 HC N32D+D62R+H107M+Y112D/LC F31M+S32R+D33F+D97T (Fab, V domains shown) VH: QVQLQQSGPGLVKPSQTLSLTCAISGDSVSSDSAAWSWIRQSPGRGLEWLGIIYKRSKWYNRYAVSVKSRITINPDTSKNQFSLQLNSVTPEDTAVYYCARWHSDKMWGFDDWGQGTLVTVSS VL: DIVMTQSPLSLPVTPGEPASISCRSSQSLVMRFGNTYLNWYLQKPGQSPQLLIYKGSNRASGVPDRFSGSGSGTDFTLKISRVEAEDVGVYYCQQYTSYPLTFGQGTKVEIKR |
| 32.3 ratio | 27 ratio | 4B7 HC N32D+D62R+H107M+Y112D/LC F31M+S32R+D33F+N35I (Fab, V domains shown) VH: QVQLQQSGPGLVKPSQTLSLTCAISGDSVSSDSAAWSWIRQSPGRGLEWLGIIYKRSKWYNRYAVSVKSRITINPDTSKNQFSLQLNSVTPEDTAVYYCARWHSDKMWGFDDWGQGTLVTVSS VL: DIVMTQSPLSLPVTPGEPASISCRSSQSLVMRFGITYLNWYLQKPGQSPQLLIYKGSNRASGVPDRFSGSGSGTDFTLKISRVEAEDVGVYYCQQYDSYPLTFGQGTKVEIKR |
